Experimental findings from PMC2930513 are described below.

Assay [1] has as its target HIV-1 BaL Env trimer (cleaved gp120/gp41) on Gag-Env VLPs (HIV-1 strain BaL). Put plainly: native gel or EMSA.
For assay [2], the target named is HIV-1 JR-FL Env trimer (cleaved gp120/gp41) from JR-FL Gag-Env VLPs (HIV-1 strain JR-FL). The assay can be described thus: native gel or EMSA.

Turning to “HIV-1 BaL Env trimer (cleaved gp120/gp41) on Gag-Env VLPs (complex)”, the stoichiometry N (usually a count of units in the complex or per binding partner) in assay [1] is 3.
In the case of “HIV-1 JR-FL Env trimer (cleaved gp120/gp41) from JR-FL Gag-Env VLPs (complex)”, in assay [2], the stoichiometry N came to 3.
